Tests used:
[1] = biological target: T1, phthalate dioxygenase (PDO) (Comamonas testosteroni, UniProt B7WQT1); experiment: LC-MS product detection; type: biochemical; details: VanB reductase, 2 mM substrate, 500 µM NADH, 100 µM ferrous ammonium sulfate, 30 °C
T1 construct: gene CtesDRAFT_PD2022; codon-optimized, MBP tag removed with TEV protease, pMCSG9, E. coli C41(DE3); authors use structure PDB 7V25 (earlier work) for PDO residues
T1 sequence (B7WQT1 1-439): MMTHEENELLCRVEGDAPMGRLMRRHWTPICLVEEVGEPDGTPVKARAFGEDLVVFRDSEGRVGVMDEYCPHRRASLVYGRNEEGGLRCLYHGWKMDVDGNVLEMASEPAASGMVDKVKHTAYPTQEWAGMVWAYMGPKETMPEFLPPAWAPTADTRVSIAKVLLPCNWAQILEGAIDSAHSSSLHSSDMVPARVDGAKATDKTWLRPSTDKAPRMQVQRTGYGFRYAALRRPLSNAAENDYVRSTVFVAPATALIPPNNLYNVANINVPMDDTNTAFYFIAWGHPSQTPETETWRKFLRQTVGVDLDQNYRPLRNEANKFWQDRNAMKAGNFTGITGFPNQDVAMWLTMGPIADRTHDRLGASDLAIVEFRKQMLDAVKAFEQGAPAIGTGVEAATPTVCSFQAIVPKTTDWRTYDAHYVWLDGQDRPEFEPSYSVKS

[2] = substrate: O=S(=O)(O)c1ccccc1; experiment: LC-MS product formation, Michaelis-Menten; type: biochemical, Comamonas testosteroni; details: apparent; VanB reductase (4:1), 500 µM NADH, O2, 100 µM ferrous ammonium sulfate
From the text: (§1) LC-MS product formation, Michaelis-Menten on TsaM (p-toluenesulfonate methyl-monooxygenase)

[3] = substrate: Cc1ccc(N)cc1; experiment: LC-MS product formation, Michaelis-Menten; type: biochemical, Comamonas testosteroni; details: apparent; VanB reductase (4:1), 500 µM NADH, O2, 100 µM ferrous ammonium sulfate
From the text: as §1

[4] = substrate: Cc1ccc(S(=O)(=O)O)cc1; experiment: LC-MS product formation, Michaelis-Menten; type: biochemical, Comamonas testosteroni; details: apparent; VanB reductase (4:1), 500 µM NADH, O2, 100 µM ferrous ammonium sulfate
From the text: as §1

[5] = substrate: O=S(=O)(O)c1ccc(O)cc1; experiment: LC-MS product formation, Michaelis-Menten; type: biochemical, Comamonas testosteroni; details: apparent; VanB reductase (4:1), 500 µM NADH, O2, 100 µM ferrous ammonium sulfate
From the text: as §1

[6] = substrate: Cc1ccc([N+](=O)[O-])cc1; experiment: LC-MS product formation, Michaelis-Menten; type: biochemical, Comamonas testosteroni; details: apparent; VanB reductase (4:1), 500 µM NADH, O2, 100 µM ferrous ammonium sulfate
From the text: as §1

[7] = substrate: O=C(O)c1ccccc1; experiment: LC-MS product formation, Michaelis-Menten; type: biochemical, Comamonas testosteroni; details: apparent; VanB reductase (4:1), 500 µM NADH, O2, 100 µM ferrous ammonium sulfate
From the text: as §1

[8] = substrate: CSc1ccc(C(=O)O)cc1; experiment: LC-MS product formation, Michaelis-Menten; type: biochemical, Comamonas testosteroni; details: apparent; VanB reductase (4:1), 500 µM NADH, O2, 100 µM ferrous ammonium sulfate
From the text: as §1

[9] = substrate: CCc1ccc(C(=O)O)cc1; experiment: LC-MS product formation, Michaelis-Menten; type: biochemical, Comamonas testosteroni; details: apparent; VanB reductase (4:1), 500 µM NADH, O2, 100 µM ferrous ammonium sulfate
From the text: as §1

[10] = substrate: Cc1cccc(C(=O)O)c1; experiment: LC-MS product formation, Michaelis-Menten; type: biochemical, Comamonas testosteroni; details: apparent; VanB reductase (4:1), 500 µM NADH, O2, 100 µM ferrous ammonium sulfate
From the text: as §1

[11] = substrate: CC(C)c1ccc(C(=O)O)cc1; experiment: LC-MS product formation, Michaelis-Menten; type: biochemical, Comamonas testosteroni; details: apparent; VanB reductase (4:1), 500 µM NADH, O2, 100 µM ferrous ammonium sulfate
From the text: as §1

[12] = substrate: COc1ccc(C(=O)O)cc1; experiment: LC-MS product formation, Michaelis-Menten; type: biochemical, Comamonas testosteroni; details: apparent; VanB reductase (4:1), 500 µM NADH, O2, 100 µM ferrous ammonium sulfate
From the text: as §1

[13] = substrate: CNc1ccc(C(=O)O)cc1; experiment: LC-MS product formation, Michaelis-Menten; type: biochemical, Comamonas testosteroni; details: apparent; VanB reductase (4:1), 500 µM NADH, O2, 100 µM ferrous ammonium sulfate
From the text: as §1

purified protein [14] = substrate: Cc1ccc(C(=O)O)cc1; experiment: purified protein; details: apparent; VanB reductase (4:1), 500 µM NADH, O2, 100 µM ferrous ammonium sulfate
purified protein [15] = substrate: O=C(O)c1ccc(O)cc1; experiment: purified protein; details: apparent; VanB reductase (4:1), 500 µM NADH, O2, 100 µM ferrous ammonium sulfate

O=C(O)c1ccccc1 [compound 38, benzoate]
LC-MS product detection [1]: PDO-VanB system catalyzes a dioxygenation reaction to transform benzoate

B1: TsaM (p-toluenesulfonate methyl-monooxygenase) (Comamonas testosteroni) (protein)
chain: MFIRNCWYVAAWDTEIPAEGLFHRTLLNEPVLLYRDTQGRVVALENRCCHRSAPLHIGRQEGDCVRCLYHGLKFNPSGACVEIPGQEQIPPKTCIKSYPVVERNRLVWIWMGDPARANPDDIVDYFWHDSPEWRMKPGYIHYQANYKLIVDNLLDFTHLAWVHPTTLGTDSAASLKPVIERDTTGTGKLTITRWYLNDDMSNLHKGVAKFEGKADRWQIYQWSPPALLRMDTGSAPTGTGAPEGRRVPEAVQFRHTSIQTPETETTSHYWFCQARNFDLDDEALTEKIYQGVVVAFEEDRTMIEAHEKILSQVPDRPMVPIAADAGLNQGRWLLDRLLKAENGGTAP
notes: codon-optimized, N-terminal His-tag with TEV site, E. coli C41(DE3), trimer ~120 kDa; assayed with VanB as non-native reductase
Km [2]: 76 ± 3.6 µM
Vmax [2]: 1.1 µM/min
kcat [2]: 0.00967 ± 0.00333 s⁻¹
kcat/Km [2]: 120 ± 47 M⁻¹ s⁻¹
Km [3]: 110 ± 7.7 µM
Vmax [3]: 3.2 µM/min
kcat [3]: 0.0267 ± 0.00233 s⁻¹
kcat/Km [3]: 230 ± 21 M⁻¹ s⁻¹
Km [4]: 3.8 ± 0.60 µM
Vmax [4]: 6.2 µM/min
kcat [4]: 0.05 ± 0.00367 s⁻¹
kcat/Km [4]: 13000 ± 2200 M⁻¹ s⁻¹
Km [5]: 80 ± 2.8 µM
Vmax [5]: 1.3 µM/min
kcat [5]: 0.011 ± 0.00167 s⁻¹
kcat/Km [5]: 130 ± 22 M⁻¹ s⁻¹
Km [6]: 230 ± 12 µM
Vmax [6]: 2.9 µM/min
kcat [6]: 0.0233 ± 0.00417 s⁻¹
kcat/Km [6]: 100 ± 16 M⁻¹ s⁻¹
Km [7]: 80 ± 1.5 µM
Vmax [7]: 1 µM/min
kcat [7]: 0.00867 ± 0.00217 s⁻¹
kcat/Km [7]: 99 ± 20 M⁻¹ s⁻¹
Km [8]: 240 ± 2.5 µM
Vmax [8]: 2.6 µM/min
kcat [8]: 0.0217 ± 0.00267 s⁻¹
kcat/Km [8]: 88 ± 14 M⁻¹ s⁻¹
Km [9]: 65 ± 3.8 µM
Vmax [9]: 7.3 µM/min
kcat [9]: 0.06 ± 0.00567 s⁻¹
kcat/Km [9]: 930 ± 95 M⁻¹ s⁻¹
Km [10]: 100 ± 4.2 µM
Vmax [10]: 3.1 µM/min
kcat [10]: 0.0267 ± 0.00617 s⁻¹
kcat/Km [10]: 260 ± 50 M⁻¹ s⁻¹
Km [11]: 150 ± 6.5 µM
Vmax [11]: 4.1 µM/min
kcat [11]: 0.035 ± 0.00433 s⁻¹
kcat/Km [11]: 230 ± 24 M⁻¹ s⁻¹
Km [12]: 180 ± 8.9 µM
Vmax [12]: 3.3 µM/min
kcat [12]: 0.0267 ± 0.00417 s⁻¹
kcat/Km [12]: 150 ± 20 M⁻¹ s⁻¹
Km [13]: 240 ± 11 µM
Vmax [13]: 3.2 µM/min
kcat [13]: 0.0267 ± 0.00217 s⁻¹
kcat/Km [13]: 110 ± 8.8 M⁻¹ s⁻¹
Km (purified protein [14]): 13 ± 1.3 µM
Vmax (purified protein [14]): 11 µM/min
kcat (purified protein [14]): 0.0933 s⁻¹
kcat/Km (purified protein [14]): 7200 M⁻¹ s⁻¹
Km (purified protein [15]): 86 ± 2.1 µM
Vmax (purified protein [15]): 1 µM/min
kcat (purified protein [15]): 0.00833 s⁻¹
kcat/Km (purified protein [15]): 98 M⁻¹ s⁻¹
